Assay results taken from paper PMC9405506, “Thermostable and O2-Insensitive Pyruvate Decarboxylases from Thermoacidophilic Archaea Catalyzing the Production of Acetaldehyde” (Biology, 2022).

Legend:
[1] = substrate: CC(=O)C(=O)O; test: PDC activity: acetaldehyde by DNPH derivatization and HPLC, Michaelis-Menten fit; assay type: biochemical, Saccharolobus solfataricus; conditions: PDC (non-oxidative decarboxylation) reaction, 0.1 mM CoA, 100 mM sodium phosphate pH 7.9, 80 °C
Text: PDC activity: acetaldehyde by DNPH derivatization and HPLC, Michaelis-Menten fit on SsPOR/PDC

[2] = substrate: CC(=O)C(=O)O; test: purified protein; assay type: biochemical, Saccharolobus solfataricus; conditions: POR (oxidative decarboxylation) reaction, 0.1 mM CoA, 1 mM benzyl viologen, 50 µM sodium dithionite, anaerobic, pH 8.0, 80 °C

B1: SsPOR/PDC (Saccharolobus solfataricus) (protein)
chain 1: MRISWMIGGAQGSGVDTSANIFGNAVAASGYYIYGNREYYSNIKGRHSYFNLTISDKPPRSIAQQIEILTSFDAETIFQHFNEVKDVLIYSTEVENTKAEQVQSMEPEITEHVVKFLKEKGYGTTVKDVINYLKKEKGVKVIPIDYMEILKKVADQAKVQLSVADRARNTIAIAASYKLLGLKEQYLINSITRTFRQEVFAKINTIAAQLAMQQIQPMYNLPELPNNEEKINLDGNTAAAIGKIYGGLRFQSYYPITPASDESVFIEAHQTVFTVDPKTGEKRKSTIVVVQAEDELAAINMASGAALTGVRAATATSGPGFSLMVEGMGWAGMNEVPVVITYYIRGGPSTGQPTRTSQADLMFALNAGHGEFPRIVIASGDHVEAFHDGTWALNLAQKYQTPVIHLVDKALANSYSIIPKKTLGMENIRIEKGKIVINTNTPELKRFEITEDGISPFAPLGTARVHYTGDEHDEYGFIAEASENREKMYEKRIKKLMTADKEIPEESRVNVYGNTDSKVAIITWGSPKGAILDAMEELENEGIKPMLIQIRMFSPFPKNLMRKLLNGKEFIIDVESNYFGQAGEVLKLNTGIEPTHYILKWNGRPMMRDEVKEGIKAVVQKGERRVVLHGGA
chain 2: MAGLKVEWNDWCPGCGNFGILSAEQQAIQELGLDPKKVVLVSGIGCSGKIPHFIRLPASGVHTLHGRALTFAIGIKLANPSLEVIVNGGDGDQLGIGVGHFVSAGRRNVDLTVIVHNNGVYGLTKGQASPTLKLGVKTKSLPKPNINSDINPIALAISSGYTFVARGYAYDVKHLKEIIKKAIKHKGLAMIDVLQPCPTYNDIHTKEYYDKRVYKLDEDPSWDPIVKKPEEMDDKMSKAILKSMEWGDRTPIGIFYQNELVSTYEQRIAERSPSYLDNPPAHDVIEFEGKPTTDVEDILKERRVT
notes: native, purified from cells by DEAE-Sepharose, hydroxyapatite and phenyl-Sepharose; heterodimer (alpha-beta), subunits 37 and about 65 kDa
[1]
  Km: 1100 ± 200 µM
  Vmax: 0.12 µmol/min/mg
[2]
  Km: 500 ± 100 µM
  Vmax: 6.3 µmol/min/mg
